From the Human Domainome abundance scans (Beltran et al. 2025)
± gives the uncertainty stated by the source.

B1: Tumor protein 63, residues 545 to 610; numbered along this chain, Q9H3D4 (parent)
chain: TDCSIVSFLARLGCSSCLDYFTTQGLTTIYQIEHYSMDDLASLKIPEQFRHAIWKGILDHRQLHEF

Variants of: B1
Test: abundance fitness (aPCA) (normalised: wild type 0, dead -1); higher = more abundant; growth selection in yeast, the domain comes from the species named
Details: Homo sapiens
For T27I, the abundance fitness was -0.075 ± 0.038. For Q24A, the abundance fitness was -0.025 ± 0.036. H60E showed an abundance fitness of -0.077 ± 0.05. Work on T23G yielded an abundance fitness of -0.004 ± 0.021. In the case of T27C, the abundance fitness is reported as -0.133 ± 0.037. Variant H51Q has an abundance fitness of 0.005 ± 0.035. Variant T23C has an abundance fitness of -0.037 ± 0.058. Work on R50A yielded an abundance fitness of -0.092 ± 0.027. With F66S the abundance fitness was -0.019 ± 0.046. Variant S15W has an abundance fitness of -0.179 ± 0.03. Variant D59N has an abundance fitness of -0.079 ± 0.04. Q31W gave an abundance fitness of -0.812 ± 0.12. For S7Y, the abundance fitness was -0.053 ± 0.041. Variant C14L has an abundance fitness of 0.023 ± 0.023. Variant Y35V has an abundance fitness of -0.118 ± 0.024. In the case of I45R, the abundance fitness is reported as -1.02 ± 0.067. For I53C, the abundance fitness was -0.528 ± 0.024. With F8R the abundance fitness was -0.918 ± 0.079. Variant A52W has an abundance fitness of -0.076 ± 0.055. In the case of L43N, the abundance fitness is reported as -0.447 ± 0.057. Work on S4C yielded an abundance fitness of -0.16 ± 0.03. Y35K showed an abundance fitness of -0.147 ± 0.037. For I57L, the abundance fitness was -0.025 ± 0.03. Work on S7G yielded an abundance fitness of -0.045 ± 0.025. L58V gave an abundance fitness of -0.006 ± 0.03. With Q31Y the abundance fitness was -0.721 ± 0.039. In the case of D59R, the abundance fitness is reported as -0.087 ± 0.024. In the case of L58T, the abundance fitness is reported as 0.002 ± 0.027. For M37Y, the abundance fitness was -0.049 ± 0.05. For S42W, the abundance fitness was -0.097 ± 0.036. Variant A41D has an abundance fitness of -0.035 ± 0.03. For A41G, the abundance fitness was -0.043 ± 0.023. For W54G, the abundance fitness was -0.248 ± 0.086. Work on D19V yielded an abundance fitness of -0.081 ± 0.029. Work on W54C yielded an abundance fitness of -0.363 ± 0.16. Variant F49V has an abundance fitness of -0.113 ± 0.021. L9W showed an abundance fitness of -0.955 ± 0.041. L40E showed an abundance fitness of -1.03 ± 0.11. L58I gave an abundance fitness of 0 ± 0.057. With Q24G the abundance fitness was -0.081 ± 0.022. Variant R61T has an abundance fitness of -0.055 ± 0.031. S16I showed an abundance fitness of -0.089 ± 0.042. With E33Q the abundance fitness was 0.013 ± 0.049. For I32G, the abundance fitness was -0.832 ± 0.037. For D19G, the abundance fitness was -0.032 ± 0.031. Variant Y35G has an abundance fitness of -0.635 ± 0.023. In the case of P46T, the abundance fitness is reported as -0.46 ± 0.033. M37D gave an abundance fitness of -0.138 ± 0.039. In the case of S4E, the abundance fitness is reported as -0.066 ± 0.026. With I57N the abundance fitness was -0.799 ± 0.082. I45G gave an abundance fitness of -0.913 ± 0.065. Variant S36Q has an abundance fitness of -0.049 ± 0.044. Variant H51I has an abundance fitness of -0.079 ± 0.041. F49M gave an abundance fitness of -0.014 ± 0.05. S42P showed an abundance fitness of -0.176 ± 0.028. With D2H the abundance fitness was -0.17 ± 0.062. In the case of H34A, the abundance fitness is reported as -0.037 ± 0.024. T22Y showed an abundance fitness of -0.177 ± 0.068. In the case of I5V, the abundance fitness is reported as -0.096 ± 0.02. With D39A the abundance fitness was -0.108 ± 0.03. D59W showed an abundance fitness of -0.161 ± 0.027. G13N gave an abundance fitness of -0.013 ± 0.058. M37R gave an abundance fitness of -0.037 ± 0.026. For D38A, the abundance fitness was -0.01 ± 0.031. F21R showed an abundance fitness of -0.964 ± 0.058. With T1M the abundance fitness was -0.041 ± 0.043. For D39R, the abundance fitness was -0.171 ± 0.02. K44T gave an abundance fitness of -0.061 ± 0.025. Variant I57D has an abundance fitness of -0.962 ± 0.089. Variant H34I has an abundance fitness of -0.372 ± 0.039. Q24V showed an abundance fitness of -0.04 ± 0.027. In the case of T23D, the abundance fitness is reported as -0.027 ± 0.032. Q48N gave an abundance fitness of -0.006 ± 0.05. In the case of Y20A, the abundance fitness is reported as -0.028 ± 0.021. Variant L18Y has an abundance fitness of -0.047 ± 0.025. With L63E the abundance fitness was 0.009 ± 0.034. In the case of F49T, the abundance fitness is reported as -0.127 ± 0.026. For H64S, the abundance fitness was 0.016 ± 0.025. F21C showed an abundance fitness of -1.01 ± 0.11. Work on T27P yielded an abundance fitness of -0.82 ± 0.07. With L58G the abundance fitness was 0.002 ± 0.027. For G13A, the abundance fitness was -0.117 ± 0.037. In the case of L63V, the abundance fitness is reported as -0.043 ± 0.025. Work on G25T yielded an abundance fitness of -0.401 ± 0.039. Variant L63N has an abundance fitness of -0.04 ± 0.034. In the case of K55Q, the abundance fitness is reported as -0.038 ± 0.071. With Y20P the abundance fitness was -0.387 ± 0.037. A52H showed an abundance fitness of -0.068 ± 0.046. Variant E47N has an abundance fitness of -0.011 ± 0.058. Work on F66R yielded an abundance fitness of -0.013 ± 0.068. For L12H, the abundance fitness was -0.099 ± 0.042. D19W gave an abundance fitness of -0.058 ± 0.03. R61W gave an abundance fitness of -0.105 ± 0.032. In the case of C3T, the abundance fitness is reported as -0.015 ± 0.021. With T22M the abundance fitness was -0.098 ± 0.039. Variant D38W has an abundance fitness of -0.085 ± 0.04. With R11D the abundance fitness was -0.09 ± 0.029. With D2G the abundance fitness was -0.11 ± 0.022. In the case of R50E, the abundance fitness is reported as -0.159 ± 0.034. For A10I, the abundance fitness was -0.203 ± 0.027. With T23R the abundance fitness was -0.02 ± 0.022. Variant R50P has an abundance fitness of -0.848 ± 0.072. Work on I45P yielded an abundance fitness of -0.865 ± 0.086. In the case of T28N, the abundance fitness is reported as -0.087 ± 0.04. With R11I the abundance fitness was -0.126 ± 0.043. Work on R11G yielded an abundance fitness of -0.071 ± 0.022. With S16E the abundance fitness was -0.033 ± 0.025. Work on P46G yielded an abundance fitness of -0.289 ± 0.023. Work on Y30L yielded an abundance fitness of -0.044 ± 0.02. In the case of S7K, the abundance fitness is reported as -0.028 ± 0.031. For Y20C, the abundance fitness was -0.08 ± 0.056. T28F gave an abundance fitness of -0.063 ± 0.038. Variant K55W has an abundance fitness of -0.192 ± 0.032. Work on H34Y yielded an abundance fitness of -0.08 ± 0.029. Work on T28I yielded an abundance fitness of -0.192 ± 0.027. With T28Y the abundance fitness was -0.056 ± 0.029. In the case of P46N, the abundance fitness is reported as -0.396 ± 0.043. G25W showed an abundance fitness of -0.733 ± 0.06. L18M gave an abundance fitness of -0.008 ± 0.044. D2Q showed an abundance fitness of -0.127 ± 0.047. Q48G gave an abundance fitness of -0.025 ± 0.02. In the case of K55M, the abundance fitness is reported as -0.048 ± 0.035. With V6L the abundance fitness was -0.007 ± 0.029. Work on K55E yielded an abundance fitness of -0.018 ± 0.046. Variant D19N has an abundance fitness of 0.004 ± 0.051. G25Q gave an abundance fitness of -0.116 ± 0.049. Variant G56R has an abundance fitness of -0.452 ± 0.02. In the case of T22L, the abundance fitness is reported as -0.021 ± 0.023. S36Y showed an abundance fitness of -0.311 ± 0.068. In the case of Q24F, the abundance fitness is reported as -0.12 ± 0.044. E33L showed an abundance fitness of -0.06 ± 0.027. For Y30V, the abundance fitness was -0.034 ± 0.025. For I5L, the abundance fitness was -0.005 ± 0.022. C3Q showed an abundance fitness of -0.031 ± 0.026. T23P gave an abundance fitness of -0.093 ± 0.032. With A41M the abundance fitness was -0.088 ± 0.06. L12C showed an abundance fitness of -0.087 ± 0.034. Work on I45T yielded an abundance fitness of -0.588 ± 0.041. F49C showed an abundance fitness of -0.047 ± 0.031. Variant Q24W has an abundance fitness of -0.138 ± 0.023. Work on H51E yielded an abundance fitness of 0.005 ± 0.038. With A10Y the abundance fitness was -0.164 ± 0.029. For C17Q, the abundance fitness was -0.147 ± 0.035. Work on A41E yielded an abundance fitness of -0.012 ± 0.028. With A52C the abundance fitness was -0.015 ± 0.038. In the case of Y35I, the abundance fitness is reported as -0.257 ± 0.061. Variant I29G has an abundance fitness of -0.701 ± 0.035. Work on Q31H yielded an abundance fitness of -0.047 ± 0.028. C17V gave an abundance fitness of -0.077 ± 0.027. With A52F the abundance fitness was -0.049 ± 0.047. S36T showed an abundance fitness of -0.023 ± 0.044. For K55T, the abundance fitness was -0.087 ± 0.045. H60N gave an abundance fitness of -0.015 ± 0.035. C14E showed an abundance fitness of -0.42 ± 0.029. Q62E gave an abundance fitness of 0.013 ± 0.04. Variant I32F has an abundance fitness of -0.209 ± 0.068. For H34W, the abundance fitness was -0.06 ± 0.025. Variant C17P has an abundance fitness of -0.784 ± 0.078. Variant C3G has an abundance fitness of -0.069 ± 0.018. K44L showed an abundance fitness of -0.076 ± 0.023. Variant G56K has an abundance fitness of -0.447 ± 0.075. For A52D, the abundance fitness was -0.064 ± 0.03. For T23Y, the abundance fitness was -0.096 ± 0.035. Work on H60F yielded an abundance fitness of -0.003 ± 0.045. Work on S36P yielded an abundance fitness of -0.608 ± 0.057. Work on L63C yielded an abundance fitness of -0.01 ± 0.031. H64A showed an abundance fitness of -0.002 ± 0.021.
